Test results: patent US7247704

Molecular target: Human Lung Tryptase (human) (UniProt Q15661)
Assay: cell-based or functional assay

Sequence of UniProt Q15661 (Q15661 31-275 limits assumed): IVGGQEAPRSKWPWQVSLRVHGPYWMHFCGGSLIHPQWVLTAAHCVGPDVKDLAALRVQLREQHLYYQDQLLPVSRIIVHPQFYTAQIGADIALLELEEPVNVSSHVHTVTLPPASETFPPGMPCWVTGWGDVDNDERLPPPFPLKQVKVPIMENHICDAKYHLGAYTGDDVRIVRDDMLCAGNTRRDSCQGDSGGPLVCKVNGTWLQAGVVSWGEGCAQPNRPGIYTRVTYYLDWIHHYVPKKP

% Inhibition of tryptase (cleavage of vasoactive intestinal peptide, RP-HPLC; example calculation): 36.7%
Substance: recombinant human Secretory Leukocyte Protease Inhibitor (rhSLPI) (from UniProt P03973 26-132)
